Reference: the supplement of paper PMC9170038

Test system: MS2 coat protein
Experiment: apparent KD of MS2 coat protein; designed switch direction (-1 OFF switch, 1 ON switch): -1; higher = weaker reporter binding
Summary of the method: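 Apparent KD, taken as the median over clusters for each design, was obtained by curve-fitting normalised cluster fluorescence. Designed RNA switches had been transcribed on Illumina chips by stalled E. coli RNA polymerase and titrated with SNAP-549-labelled MS2 coat protein, doubling from 0.7 or 1.5 nM to 3 µM.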

[1] = input ligand: microRNA oligo, concentration not stated
[2] = Eterna round: R95, input ligand: FMN 200 uM
[3] = Eterna round: R95, input ligand: microRNA oligo, concentration not stated
[4] = Eterna round: R95, input ligand: none

Row | Sequence | apparent KD of MS2 coat protein (input ligand: FMN 200 uM) [µM] | apparent KD of MS2 coat protein (input ligand: none) [µM] | apparent KD of MS2 coat protein [1] [µM] | apparent KD of MS2 coat protein [2] [µM] | apparent KD of MS2 coat protein [3] [µM] | apparent KD of MS2 coat protein [4] [µM]
1 | AUCCUUAACAAGGAUAUCGGGCGGGUUUUUGUUUGAGAAGGUGUGACAUGAGGAUCACCCAUGUGGCGCGUGGG [-22, -20.4 kcal, A 22%] (Eterna round: R97, puzzle: Exclusion 6) | 0.285 | 0.887 | – | – | – | –
2 | UUAAAUCAUGUAGGAUAUGCGUUGCGAAGCGAUGCAGAAGGACAUGAGGAUCACCCAUGUGCUAGCGUCCGCGUACGGAUGCAA [Mat - Exclusion NG 1 - Mod of JL - D60] (Eterna round: R96, puzzle: Exclusion NG 1) | 0.172 | 0.052 | 0.0653 | – | – | –
3 | AAGUACCGUCACGAAAGUGAUGGUACAACAAGUAAAUGUACAUGAGGAUCACCCAUGUCCUCAAUUGCUCGUCUUAU [Sensor 3 - 60] (puzzle: Sensor v3, turn-off variant 2) | – | – | – | 0.722 | 0.202 | 0.745
4 | UAUUAGCUAGGAUAUACAUGAGGAUCACCCAUGUCACGGGUCAACUUGUCCUAUGCGUGUAGAAGGAGCGACCC [JL Ceriza mod 5] (puzzle: Exclusion 3) | – | – | – | – | 0.0188 | –
5 | UGUUGUUACGCAGGAUAUGUAUGAGGAUCACCCAUAAAACACACACUCCCAUGAGGAUCACCCAUGUAGAAGGGCGGGUUAACA [pwkr exNG2 2xF5 1xFMN.8] (Eterna round: R96, puzzle: Exclusion NG 2) | 0.124 | 0.0808 | 0.0549 | – | – | –
6 | CUUUAGCUAGGAUAUACAUGAGGAUCACCCAUGUUAGCGGCCAAUUGGACCGCGGGUUGUAGAAGGAGCAUUAA [Atantiza] (puzzle: Exclusion 3) | – | – | – | – | 0.0298 | –
7 | CCUCCGCAUUAGGAUAUCGUCACAGAAAUGUGACGAGAAGGAAUGACAUGAGGAUCACCCAUGUUAACGUGAUG [Mod of Brourd 15 - Jieux - Exclusion 6] (Eterna round: R97, puzzle: Exclusion 6) | 0.276 | 0.0487 | – | – | – | –
8 | CAGCCCUGAGGAUAUCCAUCCUUGUACAUGAGGAUCACCCAUGUCUCCCUCUGGGCUUUCGGAGAAGGCAGGUAUC [Megrez-6.2] (Eterna round: R97, puzzle: Exclusion 5) | 0.0432 | 0.0445 | – | – | – | –
9 | AAUUAGUAUGUGAGGAUAUUGAUGUAAUGACGGUUUAAGAAGGCACAUGAGGAUCACCCAUGUAGGUGCUCACG [JR_BMEx4_Sub007] (Eterna round: R97, puzzle: Brourd's mod of Exclusion 4) | 0.38 | 0.0704 | – | – | – | –
10 | GCAUGCUGAGUUAGGAUAUGCUAGCGUUGCCGCUAGCAGAAGGAACAUGAGGAUCACCCAUGUUAGCAUGCAGU [eternacac ex4r4 #2] (Eterna round: R97, puzzle: Brourd's mod of Exclusion 4) | 0.016 | 0.014 | – | – | – | –
11 | AACAUGUGAGGAUAUGAGAACAGUCCGGAGGACUGUGUAAAUUAGAAGGCACAUGAGGAUCACCCAUGUGACCU [Laonar] (Eterna round: R97, puzzle: Exclusion 4) | 0.0326 | 0.0158 | – | – | – | –
12 | GUAUGUUAUGAGGAUAUCGGUGAACAUACACAUCGAGAAGGCAUGACAUGAGGAUCACCCAUGUCAAGGAUGAA [Exclusion 6 - B - 18:a] (puzzle: Exclusion 6) | – | – | – | 0.0341 | 0.0169 | 0.0183
13 | CUCCGGCGUGUAGGAUAUGGAUCCGAUUAGGAUCCAGAAGGACAUGAGGAUCACCCAUGUACAUGUAAACAGUCGUCACCGGGC [salish99_ExNG1_r04_206] (Eterna round: R96, puzzle: Exclusion NG 1) | 0.0759 | 0.0181 | 0.014 | – | – | –
14 | GCGGAGUCAGGAUAUUGAAUUUAACGUACCAAUUAGGUACGCGAGAAGGGACAUGAGGAUCACCCAUGUACCGC [Eli x4 4.03] (Eterna round: R97, puzzle: Exclusion 4) | 0.0114 | 0.0159 | – | – | – | –
15 | CUGAUUCUAGUAAGGAUAUCGGCGUGCACAGCAGCCGAGAAGGUACAUGAGGAUCACCCAUGUUGCUUCAACUU [Eternabot (Original) Solution 43] (Eterna round: R97, puzzle: Brourd's mod of Exclusion 4) | 0.0694 | 0.0312 | – | – | – | –
16 | GCUGGGUCAGGAUAUACAAGAUCGAAAGAUCAAAGAUUCGUACAUGAGGAUCACCCAUGUAGAAGGGACUGGGC [ChP 11-04-2015 #8] (puzzle: Exclusion 2) | – | – | – | – | 0.0172 | –

Row | Sequence | apparent KD of MS2 coat protein (input ligand: FMN 200 uM) [µM] | apparent KD of MS2 coat protein (input ligand: none) [µM] | apparent KD of MS2 coat protein [1] [µM] | apparent KD of MS2 coat protein [2] [µM] | apparent KD of MS2 coat protein [3] [µM] | apparent KD of MS2 coat protein [4] [µM]
17 | CGAUGUUAUGUCAGGAUAUGCAUUGCGAAAGCGAUGCAGAAGGGACAUGAGGAUCACCCAUGUCCUAACCAUCG [Omei A 6] (puzzle: Brourd's mod of Exclusion 4) | – | – | – | – | 0.0116 | –
18 | CCCGUGUAAGGAUAUCGUUCACUUGACAAAAGUCAAGUGAACGAGAAGGUACAUGAGGAUCACCCAUGUACGGG [-33.8, -33.4 kcal, A 32%] (Eterna round: R97, puzzle: Exclusion 4) | 0.418 | 0.571 | – | – | – | –
19 | UAUUAUCAAGCAAGAUCCCACAUGAGGAUCACCCAUGUGCUCGUCUUAUUUCCGGCCUUAUUGGGCUCUCGUCUAAU [JR_STOV1_v2_Sub094] (Eterna round: R97, puzzle: Sensor, turn-off variant 1) | 0.034 | 0.0335 | – | – | – | –
20 | CCGGCUGCUGUGAGGAUAUGCCUGCGCGCCCGCGGGCAGAAGGCACAUGAGGAUCACCCAUGUCCUGCGGUCCC [salish99_bmx4_r4_119] (Eterna round: R97, puzzle: Brourd's mod of Exclusion 4) | 0.0452 | 0.0182 | – | – | – | –
21 | AUAUAGUCAGGAUAUACAUGAGGAUCACCCAUGUGGUAGUAGAUACAGUAGAGAUAGAGUAGAAGGGACGAUGA [EX3 #24] (Eterna round: R97, puzzle: Exclusion 3) | 0.113 | 0.031 | – | – | – | –
22 | GUCCUCUUGACAUGAGGAUCACCCAUGUUUUAUUUGUUAACUGAGGAUAUACUCUUAUUUUUUAUGUAGAAGGCAGUUUUGUUC [JR_ExcNG3_Sub023] (Eterna round: R96, puzzle: Exclusion NG 3) | 0.0826 | 0.0263 | 0.022 | – | – | –
23 | UUGUUGUAUGUAGGAUAUGCAUGUUAUUAUUAUGCAGAAGGACAUGAGGAUCACCCAUGUGUAUUAUUAUUAUAUAUUAUAUAU [Title] (Eterna round: R96, puzzle: Exclusion NG 1) | – | – | 0.0154 | – | – | –
24 | AAGUAUCAUGUAGGAUAUGCUAUCCGAACGGUAGCAGAAGGACAUGAGGAUCACCCAUGUUCUCAUCUGUGAGAACAGAUGUCU [Ex NG1 #5] (Eterna round: R96, puzzle: Exclusion NG 1) | 0.0952 | 0.0223 | 0.0194 | – | – | –
25 | AUUUAGAGAGGAUAUAUAUUGUGAAACAUGAGGAUCACCCAUGUAAUAAUAUGGAUAUAAAUAGAAGGCUCAUUUU [Mat - Exclusion 5 - JL mod - D11] (puzzle: Exclusion 5) | – | – | – | 0.0261 | 0.0212 | 0.0251
26 | AUCGUGCAGCUUUGCUGUACGAGUACAUGAGGAUCACCCAUGUAGGAUAUGGUACGCAAAGCGUGCUAGAAGGAUAUGAGAAAU [Mat - Exclusion NG 3 - Mod of JL - D99] (Eterna round: R96, puzzle: Exclusion NG 3) | 0.0307 | 0.0363 | 0.0188 | – | – | –
27 | UUAUACGUUGAGGAUAUGCGAAUUAGUAUAGUUGCAGAAGGCGAUACAUGAGGAUCACCCAUGUUCAUGGGCAU [LRO-Ex6-05] (puzzle: Exclusion 6) | – | – | – | – | 0.135 | –
28 | GAGUACAGAGGAUAUACAUGAGGAUCACCCAUGUGUUUCAGCUAGGAGACUAGCGAAAGUAGAAGGCUGUACUG [salish99_ex3_r4_006] (Eterna round: R97, puzzle: Exclusion 3) | 0.0234 | 0.0103 | – | – | – | –
29 | CGUCUGUGAGGAUAUGGUAUCGUUUACAUGAGGAUCACCCAUGUUACAUGGGACUAGAGACUAGAAGGUACUGACG [EX5 #47] (Eterna round: R97, puzzle: Exclusion 5) | 0.628 | 0.878 | – | – | – | –
30 | CUGAACCCGGUAGGAUAUAUUGUGGGCGGGCGUGGAACGACAUGAGGAUCACCCAUGUAAUUGAGGUAGAAGGGCCGAGAGAUU [Excl-NG2-LRO15] (Eterna round: R96, puzzle: Exclusion NG 2) | 0.0379 | 0.0464 | 0.023 | – | – | –
31 | CCAAUCAGAGGAUAUGCGAAUAAAUAAAACUUUUUUUUUUAACAUGAGGAUCACCCAUGUAGAAGGCUGUAACC [Ex2 #43] (Eterna round: R97, puzzle: Exclusion 2) | 0.0315 | 0.0254 | – | – | – | –
